Like-named read-outs stand apart in the source and are kept apart here.
How the values were obtained:
[1] = target: T1, BMP6 (UniProt P22004 382-513, limits assumed); experiment: Biacore SPR
T1 sequence (looked up): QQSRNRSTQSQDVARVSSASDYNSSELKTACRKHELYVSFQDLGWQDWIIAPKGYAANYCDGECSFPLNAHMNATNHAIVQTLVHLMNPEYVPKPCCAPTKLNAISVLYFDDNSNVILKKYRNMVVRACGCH

[2] = target: BMP2 (UniProt P12643 283-396); experiment: Biacore SPR
Method: (§1) Ligands were injected and allowed to flow over the captured receptor protein.

[3] = target: T2, BMP4 (UniProt P12644 293-408); experiment: Biacore SPR
T2 sequence (looked up): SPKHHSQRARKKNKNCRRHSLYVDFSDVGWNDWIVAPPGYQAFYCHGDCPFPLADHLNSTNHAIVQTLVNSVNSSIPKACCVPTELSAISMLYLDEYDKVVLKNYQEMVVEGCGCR
Method: as §1

[4] = target: T3, BMP5 (UniProt P22003 317-454, limits assumed); experiment: Biacore SPR
T3 sequence (looked up): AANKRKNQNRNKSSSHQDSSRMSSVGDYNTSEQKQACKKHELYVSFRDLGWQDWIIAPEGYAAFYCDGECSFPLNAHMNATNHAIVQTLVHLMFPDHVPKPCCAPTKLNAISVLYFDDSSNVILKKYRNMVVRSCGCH
Method: as §1

[5] = target: T1, BMP6; experiment: Biacore SPR; remark: listed apart in the source
Method: as §1

[6] = target: T4, BMP7 (UniProt P18075 293-431); experiment: Biacore SPR
T4 sequence (looked up): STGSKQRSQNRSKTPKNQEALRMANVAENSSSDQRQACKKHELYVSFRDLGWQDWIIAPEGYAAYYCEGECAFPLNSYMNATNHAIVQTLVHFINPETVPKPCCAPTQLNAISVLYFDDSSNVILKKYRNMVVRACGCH
Method: as §1

[7] = target: T5, BMP9 (UniProt Q9UK05 320-429); experiment: Biacore SPR
T5 construct: also called GDF2
T5 sequence (looked up): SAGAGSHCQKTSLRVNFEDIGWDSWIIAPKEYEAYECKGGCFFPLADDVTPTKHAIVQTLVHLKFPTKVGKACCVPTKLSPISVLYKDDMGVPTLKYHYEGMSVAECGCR
Method: as §1

[8] = target: T6, BMP10 (UniProt O95393 317-424); experiment: Biacore SPR
T6 sequence (looked up): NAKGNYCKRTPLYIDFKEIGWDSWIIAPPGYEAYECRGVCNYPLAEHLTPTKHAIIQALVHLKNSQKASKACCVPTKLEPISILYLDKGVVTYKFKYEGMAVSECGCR
Method: as §1

[9] = target: T7, BMP15 (UniProt O95972 268-392); experiment: Biacore SPR
T7 construct: also called GDF9b
T7 sequence (looked up): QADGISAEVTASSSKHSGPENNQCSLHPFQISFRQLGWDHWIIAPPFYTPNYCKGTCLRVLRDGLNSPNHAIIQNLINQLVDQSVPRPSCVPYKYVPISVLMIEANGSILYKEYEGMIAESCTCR
Method: as §1

[10] = target: T8, GDF6 (UniProt Q6KF10 336-455, limits assumed); experiment: Biacore SPR
T8 construct: also called BMP13
T8 sequence (looked up): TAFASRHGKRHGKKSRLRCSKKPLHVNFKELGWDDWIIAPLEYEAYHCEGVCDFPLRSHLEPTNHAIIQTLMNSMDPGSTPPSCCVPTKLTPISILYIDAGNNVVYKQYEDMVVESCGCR
Method: as §1

[11] = target: T9, activin A (UniProt P08476 311-426); experiment: Biacore SPR
T9 sequence (looked up): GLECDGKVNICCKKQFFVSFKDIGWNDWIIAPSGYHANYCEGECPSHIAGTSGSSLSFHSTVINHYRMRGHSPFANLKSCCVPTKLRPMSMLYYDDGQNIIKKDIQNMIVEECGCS
Method: as §1

[12] = target: T10, activin B (UniProt P09529 293-407); experiment: Biacore SPR
T10 sequence (looked up): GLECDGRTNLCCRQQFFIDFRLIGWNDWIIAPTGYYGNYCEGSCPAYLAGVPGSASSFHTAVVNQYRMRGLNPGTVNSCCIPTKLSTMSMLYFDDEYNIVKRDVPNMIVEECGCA
Method: as §1

[13] = target: T11, GDF11 (UniProt O95390 299-407); experiment: Biacore SPR
T11 construct: also called BMP11
T11 sequence (looked up): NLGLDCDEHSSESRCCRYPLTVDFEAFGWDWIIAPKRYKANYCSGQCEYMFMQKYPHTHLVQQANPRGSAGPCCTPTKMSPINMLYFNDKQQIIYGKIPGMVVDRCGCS
Method: as §1

[14] = target: T9, activin A; experiment: Biacore SPR; remark: listed apart in the source
Method: as §1

[15] = target: T12, activin AB (UniProt P08476 311-426; P09529 293-407); experiment: Biacore SPR
T12 sequence (looked up) 1: T9 sequence (looked up)
T12 sequence (looked up) 2: T10 sequence (looked up)
Method: as §1

[16] = target: T13, activin AC (UniProt P08476 311-426; P55103 237-352); experiment: Biacore SPR
T13 sequence (looked up) 1: T9 sequence (looked up)
T13 sequence (looked up) 2: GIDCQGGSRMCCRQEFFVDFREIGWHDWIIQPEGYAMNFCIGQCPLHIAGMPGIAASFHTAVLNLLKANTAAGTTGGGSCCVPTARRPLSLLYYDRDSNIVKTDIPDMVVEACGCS
Method: as §1

[17] = target: T1, BMP6; experiment: Biacore SPR; remark: listed apart in the source
Method: as §1

[18] = target: T4, BMP7; experiment: Biacore SPR; remark: listed apart in the source
Method: as §1

[19] = target: T6, BMP10; experiment: Biacore SPR; remark: listed apart in the source
Method: as §1

[20] = target: T11, GDF11; experiment: Biacore SPR; remark: listed apart in the source
Method: as §1

[21] = target: T9, activin A; experiment: Biacore SPR; remark: listed apart in the source
Method: as §1

[22] = target: T12, activin AB; experiment: Biacore SPR; remark: listed apart in the source
Method: as §1

[23] = target: T5, BMP9; experiment: Biacore SPR; remark: listed apart in the source
Method: as §1

[24] = target: T7, BMP15; experiment: Biacore SPR; remark: listed apart in the source
Method: as §1

[25] = target: T11, GDF11; experiment: Biacore SPR; † very low signal
Method: as §1

[26] = target: T11, GDF11; experiment: Biacore SPR; † very low signal; remark: listed apart in the source
Method: as §1

Chain of BMP2 (P12643 283-396 limits assumed): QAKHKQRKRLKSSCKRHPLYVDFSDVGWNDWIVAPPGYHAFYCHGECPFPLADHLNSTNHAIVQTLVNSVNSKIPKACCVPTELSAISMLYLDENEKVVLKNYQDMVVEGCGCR

B1: BMPRII-Fc:ALK3-Fc heterodimer (Fc fusion)
chain 1: SQNQERLCAFKDPYQQDLGIGESRISHENGTILCSKGSTCYGLWEKSKGDINLVKQGCWSHIGDPQECHYEECVVTTTPPSIQNGTYRFCCCSTDLCNVNFTENFPPPDTTPLSPPHSFNRDETGGGTHTCPPCPAPELLGGPSVFLFPPKPKDTLMISRTPEVTCVVVDVSHEDPEVKFNWYVDGVEVHNAKTKPREEQYNSTYRVVSVLTVLHQDWLNGKEYKCKVSNKALPAPIEKTISKAKGQPREPQVYTLPPSRKEMTKNQVSLTCLVKGFYPSDIAVEWESNGQPENNYKTTPPVLKSDGSFFLYSKLTVDKSRWQQGNVFSCSVMHEALHNHYTQKSLSLSPGK
chain 2: GAQNLDSMLHGTGMKSDSDQKKSENGVTLAPEDTLPFLKCYCSGHCPDDAINNTCITNGHCFAIIEEDDQGETTLASGCMKYEGSDFQCKDSPKAQLRRTIECCRTNLCNQYLQPTLPPVVIGPFFDGSIRTGGGTHTCPPCPAPELLGGPSVFLFPPKPKDTLMISRTPEVTCVVVDVSHEDPEVKFNWYVDGVEVHNAKTKPREEQYNSTYRVVSVLTVLHQDWLNGKEYKCKVSNKALPAPIEKTISKAKGQPREPQVYTLPPSREEMTKNQVSLTCLVKGFYPSDIAVEWESNGQPENNYDTTPPVLDSDGSFFLYSDLTVDKSRWQQGNVFSCSVMHEALHNHYTQKSLSLSPG
notes: C-terminal Lys optional; also called BMPRII-Fc:ALK3 heterodimer
[1]
  off-rate ratio against ALK3-Fc homodimer: ~10 fold
[2]
  Kd: 0.051 nM
  koff: 0.00015 s⁻¹
  kon: 2.9e+06 M⁻¹ s⁻¹
[3]
  Kd: 0.1 nM
  koff: 9.1e-05 s⁻¹
  kon: 910000 M⁻¹ s⁻¹
[4]
  Kd: 3.2 nM
  koff: 0.0014 s⁻¹
  kon: 430000 M⁻¹ s⁻¹
[5]
  Kd: 1.6 nM
  koff: 0.00059 s⁻¹
  kon: 360000 M⁻¹ s⁻¹
[6]
  Kd: 1 nM
  koff: 0.012 s⁻¹
  kon: 1.2e+07 M⁻¹ s⁻¹
[7]
  binding result: no binding
[8]
  Kd: 2.4 nM
  koff: 0.0016 s⁻¹
  kon: 680000 M⁻¹ s⁻¹
[9]
  Kd: 6 nM
  koff: 0.0055 s⁻¹
  kon: 910000 M⁻¹ s⁻¹
[10]
  Kd: 1.4 nM
  koff: 0.0019 s⁻¹
  kon: 1.4e+06 M⁻¹ s⁻¹

B2: ALK4-Fc homodimer (Fc fusion, UniProt P36896 24-126, looked up, not shown: a dimerising Fc or GST)
chain: SGPRGVQALLCACTSCLQANYTCETDGACMVSIFNLDGMEHHVRTCIPKVELVPAGKPFYCLSSEDLRNTHCCYTDYCNRIDLRVPSGHLKEPEHPSMWGPVE
notes: extracellular domain
[11]
  Kd: 20 nM
  koff: 0.012 s⁻¹
  kon: 580000 M⁻¹ s⁻¹
[12]
  binding result: no binding
[13]
  koff: 0.0048 s⁻¹
  kon: 5e+06 M⁻¹ s⁻¹
[14]
  Kd: 20 nM
  koff: 0.012 s⁻¹
  kon: 580000 M⁻¹ s⁻¹
[15]
  Kd: 2 nM
  koff: 0.0036 s⁻¹
  kon: 1.8e+06 M⁻¹ s⁻¹
[16]
  binding result: no binding
[17]
  binding result: no binding
[18]
  binding result: no binding
[19]
  binding result: no binding
[20]
  koff: 0.0048 s⁻¹
  kon: 5e+06 M⁻¹ s⁻¹
[21]
  Kd: 20 nM
  koff: 0.012 s⁻¹
  kon: 580000 M⁻¹ s⁻¹
[22]
  Kd: 1.5 nM
  koff: 0.0064 s⁻¹
  kon: 4.4e+06 M⁻¹ s⁻¹
[23]
  binding result: no binding
[24]
  binding result: no binding
[25]
  Kd: 0.97 nM
[26]
  Kd: 0.97 nM

From patent US20190225669A1 (ACCELERON PHARMA, published 2019)
